Measured values: patent publication US20050153894A1, “p21 peptides” (Cyclacel Limited, priority 1999, published 2005)
Square brackets hold non-standard residues; d marks the D form. Phe(3-F) = N[C@@H](Cc1cccc(F)c1)C(=O)O; Phe(4-F) = N[C@@H](Cc1ccc(F)cc1)C(=O)O; 1Nal = N[C@@H](Cc1cccc2ccccc12)C(=O)O; 2Nal = N[C@@H](Cc1ccc2ccccc2c1)C(=O)O; hPhe = N[C@@H](CCc1ccccc1)C(=O)O; Tic = O=C(O)[C@@H]1Cc2ccccc2CN1; Cha = N[C@@H](CC1CCCCC1)C(=O)O; Nle = CCCC[C@H](N)C(=O)O; Nva = CCC[C@H](N)C(=O)O; Abu = CC[C@H](N)C(=O)O

Columns and labels:
CDK2/cyclin A = CDK2/cyclin A (Homo sapiens, UniProt P20248); test: CDK2/cyclin A kinase assay, substrate pRb(773-928); type: biochemical; conditions: relative to H-His-Ala-Lys-Arg-Arg-Leu-Ile-Phe-NH2 (=1), pRb substrate, [ATP] = 100 μM
Source text: Reactions were stopped on ice, followed by filtration through p81 filterplates (Whatman Polyfiltronics, Kent, UK).

Cyclin A = Cyclin A (Homo sapiens, UniProt P20248); test: Cyclin A binding assay, immobilised biotinyl-Ahx-[…]NH2; conditions: relative to H-His-Ala-Lys-Arg-Arg-Leu-Ile-Phe-NH2 (=1)
Cyclin A, sequence (P20248 whole entry): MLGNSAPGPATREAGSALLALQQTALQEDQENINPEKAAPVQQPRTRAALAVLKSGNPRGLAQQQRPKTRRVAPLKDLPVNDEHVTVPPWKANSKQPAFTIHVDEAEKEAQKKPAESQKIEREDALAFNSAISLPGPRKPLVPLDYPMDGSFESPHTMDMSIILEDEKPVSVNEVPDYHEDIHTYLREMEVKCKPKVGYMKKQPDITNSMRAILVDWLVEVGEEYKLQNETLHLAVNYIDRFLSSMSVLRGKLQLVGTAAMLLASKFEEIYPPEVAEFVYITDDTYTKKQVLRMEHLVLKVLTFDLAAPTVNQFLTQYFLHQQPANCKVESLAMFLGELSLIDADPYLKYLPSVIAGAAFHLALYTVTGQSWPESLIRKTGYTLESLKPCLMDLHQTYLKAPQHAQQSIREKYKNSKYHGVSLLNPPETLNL
Description: This was added to each well (100 μL). The plate was incubated for 1 h at room temperature with constant shaking. The plate was washed once quickly with TBS/BSA buffer (200 μL), followed by three more washes with TBS/BSA buffer (200 μL) for 5 min each. Serial dilutions of test peptides were prepared in a new plate (50 μL in each well). Cyclin A was diluted to 5 μg/50 μL with TBS/BSA buffer and this was then added to each well (50 μL). The solutions were mixed thoroughly with a pipette (5-6 times), before being incubated for 30 min at room temperature. This reaction mixture was then transferred to the biotinylated peptide: streptavidin-coated plate and incubated for 1 h at room temperature with constant shaking. The plate was washed once quickly with TBS/BSA buffer (200 μL), followed by three more washes with TBS/BSA buffer (200 μL) for 5 min each. The cyclin A antibody (Santa Cruz polyclonal) solution was diluted 1:200 with TBS/BSA buffer and this was then added to each well of the plate (100 μL. The plate was incubated for 1 h at room temperature with constant shaking. The plate was washed once quickly with TBS/BSA buffer (200 μl), followed by three more washes with TBS/BSA buffer (200 μL) for 5 min each. The anti-rabbit secondary antibody (goat anti-rabbit IgG peroxidase conjugate) was diluted 1:10,000 with TBS/BSA and this was then added to each well of the plate (100 μL). The plate was incubated for 1 h at room temperature with constant shaking. The plate was washed once quickly with TBS/BSA buffer (200 μL), followed by three more washes with TBS/BSA buffer (200 μL) for 5 min each. To each well was added the TMB-ELISA reagent (Pierce 1-Step™ Turbo TMB-ELISA; 100 μL) and the plate incubated for 1 min with constant shaking. The reaction was then quenched by the addition of 2 M aqueous H2SO4 (100 μL, each well). The UV absorbance of the each solution was measured spectrophotometrically at 450 nm. IC50 values were calculated from dose-response curves.

H-His-Ala-Abu-Arg-Arg-Leu-Ile Phe-NH2 (H-HA[Abu]RRLIF-NH2; SMILES CC[C@H](NC(=O)[C@H](C)NC(=O)[C@@H](N)Cc1c[nH]cn1)C(=O)N[C@@H](CCCNC(=N)N)C(=O)N[C@@H](CCCNC(=N)N)C(=O)N[C@@H](CC(C)C)C(=O)N[C@H](C(=O)N[C@@H](Cc1ccccc1)C(N)=O)[C@@H](C)CC)
Relative activity Kinase Inhibition (CDK2/cyclin A; Lys154 substitutions): 0.8 | Relative activity Cyclin A Binding (Cyclin A; Lys154 substitutions): 0.2

H-His-Ala-Ala-Arg-Arg-Leu-Ile Phe-NH2 (H-HAARRLIF-NH2)
Relative activity Kinase Inhibition (CDK2/cyclin A; Lys154 substitutions): <0.1 | Relative activity Cyclin A Binding (Cyclin A; Lys154 substitutions): 0.5

H-His-Ala-Arg-Arg-Arg-Leu-Ile Phe-NH2 (H-HARRRLIF-NH2)
Relative activity Kinase Inhibition (CDK2/cyclin A; Lys154 substitutions): 5.7 | Relative activity Cyclin A Binding (Cyclin A; Lys154 substitutions): 1.5

H-His-Ala-Leu-Arg-Arg-Leu-Ile Phe-NH2 (H-HALRRLIF-NH2)
Relative activity Kinase Inhibition (CDK2/cyclin A; Lys154 substitutions): 0.1 | Relative activity Cyclin A Binding (Cyclin A; Lys154 substitutions): 1.4

H-His-Ala-Lys-Ala-Arg-Leu-Ile Phe-NH2 (H-HAKARLIF-NH2)
Relative activity Kinase Inhibition (CDK2/cyclin A; Arg155 substitutions): <0.1 | Relative activity Cyclin A Binding (Cyclin A; Arg155 substitutions): <0.1

H-His-Ala-Lys-Arg-Ala-Leu-Ile Phe-NH2 (H-HAKRALIF-NH2)
Relative activity Kinase Inhibition (CDK2/cyclin A; Arg156 substitutions): <0.1 | Relative activity Cyclin A Binding (Cyclin A; Arg156 substitutions): <0.1

H-His-Ala-Lys-Arg-Arg-1Nap-Ile Phe-NH2 (H-HAKRR[1Nal]IF-NH2; SMILES CC[C@H](C)[C@H](NC(=O)[C@H](Cc1cccc2ccccc12)NC(=O)[C@H](CCCNC(=N)N)NC(=O)[C@H](CCCNC(=N)N)NC(=O)[C@H](CCCCN)NC(=O)[C@H](C)NC(=O)[C@@H](N)Cc1c[nH]cn1)C(=O)N[C@@H](Cc1ccccc1)C(N)=O)
Relative activity Kinase Inhibition (CDK2/cyclin A; Leu157 substitutions): <0.1 | Relative activity Cyclin A Binding (Cyclin A; Leu157 substitutions): <0.1

H-His-Ala-Lys-Arg-Arg-Cha-Ile Phe-NH2 (H-HAKRR[Cha]IF-NH2; SMILES CC[C@H](C)[C@H](NC(=O)[C@H](CC1CCCCC1)NC(=O)[C@H](CCCNC(=N)N)NC(=O)[C@H](CCCNC(=N)N)NC(=O)[C@H](CCCCN)NC(=O)[C@H](C)NC(=O)[C@@H](N)Cc1c[nH]cn1)C(=O)N[C@@H](Cc1ccccc1)C(N)=O)
Relative activity Kinase Inhibition (CDK2/cyclin A; Leu157 substitutions): <0.1 | Relative activity Cyclin A Binding (Cyclin A; Leu157 substitutions): <0.1

H-His-Ala-Lys-Arg-Arg-Leu-1Nap-Phe-NH2 (H-HAKRRL[1Nal]F-NH2; SMILES CC(C)C[C@H](NC(=O)[C@H](CCCNC(=N)N)NC(=O)[C@H](CCCNC(=N)N)NC(=O)[C@H](CCCCN)NC(=O)[C@H](C)NC(=O)[C@@H](N)Cc1c[nH]cn1)C(=O)N[C@@H](Cc1cccc2ccccc12)C(=O)N[C@@H](Cc1ccccc1)C(N)=O)
Relative activity Kinase Inhibition (CDK2/cyclin A; Ile158 substitutions): 0.5 | Relative activity Cyclin A Binding (Cyclin A; Ile158 substitutions): 0.5

H-His-Ala-Lys-Arg-Arg-Leu-Cha-Phe-NH2 (H-HAKRRL[Cha]F-NH2; SMILES CC(C)C[C@H](NC(=O)[C@H](CCCNC(=N)N)NC(=O)[C@H](CCCNC(=N)N)NC(=O)[C@H](CCCCN)NC(=O)[C@H](C)NC(=O)[C@@H](N)Cc1c[nH]cn1)C(=O)N[C@@H](CC1CCCCC1)C(=O)N[C@@H](Cc1ccccc1)C(N)=O)
Relative activity Kinase Inhibition (CDK2/cyclin A; Ile158 substitutions): 0.3 | Relative activity Cyclin A Binding (Cyclin A; Ile158 substitutions): 0.5

H-His-Ala-Lys-Arg-Arg-Leu-Ile-1Nap-NH2 (H-HAKRRLI[1Nal]-NH2; SMILES CC[C@H](C)[C@H](NC(=O)[C@H](CC(C)C)NC(=O)[C@H](CCCNC(=N)N)NC(=O)[C@H](CCCNC(=N)N)NC(=O)[C@H](CCCCN)NC(=O)[C@H](C)NC(=O)[C@@H](N)Cc1c[nH]cn1)C(=O)N[C@@H](Cc1cccc2ccccc12)C(N)=O)
Relative activity Kinase Inhibition (CDK2/cyclin A; Phe159 substitutions): 0.2 | Relative activity Cyclin A Binding (Cyclin A; Phe159 substitutions): <0.1

H-His-Ala-Lys-Arg-Arg-Leu-Ile-2Nap-NH2 (H-HAKRRLI[2Nal]-NH2; SMILES CC[C@H](C)[C@H](NC(=O)[C@H](CC(C)C)NC(=O)[C@H](CCCNC(=N)N)NC(=O)[C@H](CCCNC(=N)N)NC(=O)[C@H](CCCCN)NC(=O)[C@H](C)NC(=O)[C@@H](N)Cc1c[nH]cn1)C(=O)N[C@@H](Cc1ccc2ccccc2c1)C(N)=O)
Relative activity Kinase Inhibition (CDK2/cyclin A; Phe159 substitutions): 1.2 | Relative activity Cyclin A Binding (Cyclin A; Phe159 substitutions): 0.7

H-His-Ala-Lys-Arg-Arg-Leu-Ile-Cha-NH2 (H-HAKRRLI[Cha]-NH2; SMILES CC[C@H](C)[C@H](NC(=O)[C@H](CC(C)C)NC(=O)[C@H](CCCNC(=N)N)NC(=O)[C@H](CCCNC(=N)N)NC(=O)[C@H](CCCCN)NC(=O)[C@H](C)NC(=O)[C@@H](N)Cc1c[nH]cn1)C(=O)N[C@@H](CC1CCCCC1)C(N)=O)
Relative activity Kinase Inhibition (CDK2/cyclin A; Phe159 substitutions): <0.1 | Relative activity Cyclin A Binding (Cyclin A; Phe159 substitutions): <0.1

H-His-Ala-Lys-Arg-Arg-Leu-Ile-Hof-NH2 (H-HAKRRLI[hPhe]-NH2; SMILES CC[C@H](C)[C@H](NC(=O)[C@H](CC(C)C)NC(=O)[C@H](CCCNC(=N)N)NC(=O)[C@H](CCCNC(=N)N)NC(=O)[C@H](CCCCN)NC(=O)[C@H](C)NC(=O)[C@@H](N)Cc1c[nH]cn1)C(=O)N[C@@H](CCc1ccccc1)C(N)=O)
Relative activity Kinase Inhibition (CDK2/cyclin A; Phe159 substitutions): <0.1 | Relative activity Cyclin A Binding (Cyclin A; Phe159 substitutions): <0.1

H-His-Ala-Lys-Arg-Arg-Leu-Ile-Tic-NH2 (H-HAKRRLI[Tic]-NH2; SMILES CC[C@H](C)[C@H](NC(=O)[C@H](CC(C)C)NC(=O)[C@H](CCCNC(=N)N)NC(=O)[C@H](CCCNC(=N)N)NC(=O)[C@H](CCCCN)NC(=O)[C@H](C)NC(=O)[C@@H](N)Cc1c[nH]cn1)C(=O)N1Cc2ccccc2C[C@H]1C(N)=O)
Relative activity Kinase Inhibition (CDK2/cyclin A; Phe159 substitutions): 0.3 | Relative activity Cyclin A Binding (Cyclin A; Phe159 substitutions): <0.1

H-His-Ala-Lys-Arg-Arg-Leu-Ile-mFPhe-NH2 (H-HAKRRLI[Phe(3-F)]-NH2; SMILES CC[C@H](C)[C@H](NC(=O)[C@H](CC(C)C)NC(=O)[C@H](CCCNC(=N)N)NC(=O)[C@H](CCCNC(=N)N)NC(=O)[C@H](CCCCN)NC(=O)[C@H](C)NC(=O)[C@@H](N)Cc1c[nH]cn1)C(=O)N[C@@H](Cc1cccc(F)c1)C(N)=O)
Relative activity Kinase Inhibition (CDK2/cyclin A; Phe159 substitutions): 0.8 | Relative activity Cyclin A Binding (Cyclin A; Phe159 substitutions): 0.8

H-His-Ala-Lys-Arg-Arg-Leu-Ile-pFPhe-NH2 (H-HAKRRLI[Phe(4-F)]-NH2; SMILES CC[C@H](C)[C@H](NC(=O)[C@H](CC(C)C)NC(=O)[C@H](CCCNC(=N)N)NC(=O)[C@H](CCCNC(=N)N)NC(=O)[C@H](CCCCN)NC(=O)[C@H](C)NC(=O)[C@@H](N)Cc1c[nH]cn1)C(=O)N[C@@H](Cc1ccc(F)cc1)C(N)=O)
Relative activity Kinase Inhibition (CDK2/cyclin A; Phe159 substitutions): 1 | Relative activity Cyclin A Binding (Cyclin A; Phe159 substitutions): 5

H-His-Ala-Lys-Arg-Arg-Leu-Nle Phe-NH2 (H-HAKRRL[Nle]F-NH2; SMILES CCCC[C@H](NC(=O)[C@H](CC(C)C)NC(=O)[C@H](CCCNC(=N)N)NC(=O)[C@H](CCCNC(=N)N)NC(=O)[C@H](CCCCN)NC(=O)[C@H](C)NC(=O)[C@@H](N)Cc1c[nH]cn1)C(=O)N[C@@H](Cc1ccccc1)C(N)=O)
Relative activity Kinase Inhibition (CDK2/cyclin A; Ile158 substitutions): 0.4 | Relative activity Cyclin A Binding (Cyclin A; Ile158 substitutions): 0.3

H-His-Ala-Lys-Arg-Arg-Leu-Nva Phe-NH2 (H-HAKRRL[Nva]F-NH2; SMILES CCC[C@H](NC(=O)[C@H](CC(C)C)NC(=O)[C@H](CCCNC(=N)N)NC(=O)[C@H](CCCNC(=N)N)NC(=O)[C@H](CCCCN)NC(=O)[C@H](C)NC(=O)[C@@H](N)Cc1c[nH]cn1)C(=O)N[C@@H](Cc1ccccc1)C(N)=O)
Relative activity Kinase Inhibition (CDK2/cyclin A; Ile158 substitutions): 0.2 | Relative activity Cyclin A Binding (Cyclin A; Ile158 substitutions): 0.6

H-His-Ala-Lys-Arg-Arg-Nle-Ile Phe-NH2 (H-HAKRR[Nle]IF-NH2; SMILES CCCC[C@H](NC(=O)[C@H](CCCNC(=N)N)NC(=O)[C@H](CCCNC(=N)N)NC(=O)[C@H](CCCCN)NC(=O)[C@H](C)NC(=O)[C@@H](N)Cc1c[nH]cn1)C(=O)N[C@H](C(=O)N[C@@H](Cc1ccccc1)C(N)=O)[C@@H](C)CC)
Relative activity Kinase Inhibition (CDK2/cyclin A; Leu157 substitutions): <0.1 | Relative activity Cyclin A Binding (Cyclin A; Leu157 substitutions): <0.1
